Assay results from IntAct's records for PubMed 21111240.

Tests used:
[1] = target: straa_mouse Strada (UniProt Q3UUJ4)
[2] = target: goga2_mouse Golga2 (UniProt Q921M4)
Sequence of goga2_mouse Golga2 (Q921M4 whole entry): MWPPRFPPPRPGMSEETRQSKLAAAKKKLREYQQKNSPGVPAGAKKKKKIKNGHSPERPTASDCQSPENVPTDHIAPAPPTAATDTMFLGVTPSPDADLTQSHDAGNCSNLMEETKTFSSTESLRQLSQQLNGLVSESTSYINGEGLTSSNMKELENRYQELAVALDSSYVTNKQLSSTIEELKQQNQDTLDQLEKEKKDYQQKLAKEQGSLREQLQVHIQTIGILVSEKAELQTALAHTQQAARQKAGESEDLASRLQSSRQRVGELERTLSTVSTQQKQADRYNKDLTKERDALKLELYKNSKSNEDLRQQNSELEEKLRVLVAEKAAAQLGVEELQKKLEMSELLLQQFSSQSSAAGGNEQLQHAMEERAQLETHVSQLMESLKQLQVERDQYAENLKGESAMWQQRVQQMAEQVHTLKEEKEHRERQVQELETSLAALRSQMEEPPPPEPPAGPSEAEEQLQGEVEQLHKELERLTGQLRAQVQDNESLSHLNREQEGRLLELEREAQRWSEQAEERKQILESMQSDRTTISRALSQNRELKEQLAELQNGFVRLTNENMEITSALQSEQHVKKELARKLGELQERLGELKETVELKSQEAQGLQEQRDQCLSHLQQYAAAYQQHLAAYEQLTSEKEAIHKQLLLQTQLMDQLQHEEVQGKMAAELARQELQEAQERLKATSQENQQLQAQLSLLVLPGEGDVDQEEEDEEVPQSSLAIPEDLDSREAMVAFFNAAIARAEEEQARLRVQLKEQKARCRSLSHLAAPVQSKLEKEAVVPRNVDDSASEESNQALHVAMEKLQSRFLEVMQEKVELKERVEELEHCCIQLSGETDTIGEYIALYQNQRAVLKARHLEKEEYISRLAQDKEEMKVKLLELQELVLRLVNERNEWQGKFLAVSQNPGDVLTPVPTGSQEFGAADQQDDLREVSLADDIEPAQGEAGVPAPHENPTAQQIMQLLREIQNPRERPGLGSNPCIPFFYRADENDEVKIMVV

Sequence of Serine/threonine-protein kinase 25 (Mus musculus), Q9Z2W1 K49R (Q9Z2W1 whole entry K49R): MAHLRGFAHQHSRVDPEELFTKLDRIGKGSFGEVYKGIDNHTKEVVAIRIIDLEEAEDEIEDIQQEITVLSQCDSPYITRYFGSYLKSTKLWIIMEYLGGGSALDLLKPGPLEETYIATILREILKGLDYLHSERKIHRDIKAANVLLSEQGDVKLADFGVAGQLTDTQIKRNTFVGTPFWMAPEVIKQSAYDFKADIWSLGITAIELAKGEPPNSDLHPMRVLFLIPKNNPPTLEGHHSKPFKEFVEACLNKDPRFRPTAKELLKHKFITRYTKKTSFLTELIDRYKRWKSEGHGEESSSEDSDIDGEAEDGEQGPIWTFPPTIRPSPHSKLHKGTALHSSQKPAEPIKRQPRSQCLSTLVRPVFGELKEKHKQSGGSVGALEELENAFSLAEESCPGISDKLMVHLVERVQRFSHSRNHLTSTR
Sequence of straa_mouse Strada (Q3UUJ4 whole entry): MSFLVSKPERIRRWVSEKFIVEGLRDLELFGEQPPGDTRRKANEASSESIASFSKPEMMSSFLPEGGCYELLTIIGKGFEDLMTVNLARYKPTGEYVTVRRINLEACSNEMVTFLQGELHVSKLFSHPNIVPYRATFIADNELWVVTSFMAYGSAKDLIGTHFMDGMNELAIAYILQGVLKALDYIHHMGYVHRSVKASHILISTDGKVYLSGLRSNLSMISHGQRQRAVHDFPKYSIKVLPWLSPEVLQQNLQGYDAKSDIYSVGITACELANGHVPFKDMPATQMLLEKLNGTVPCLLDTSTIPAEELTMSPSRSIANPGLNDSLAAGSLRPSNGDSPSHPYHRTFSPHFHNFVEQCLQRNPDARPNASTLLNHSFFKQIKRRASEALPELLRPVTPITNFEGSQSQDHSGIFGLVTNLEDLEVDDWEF

Serine/threonine-protein kinase 25 (Mus musculus), Q9Z2W1 K49R
effect of a mutation on the interaction [1]: decreasing interaction | effect of a mutation on the interaction [2]: increasing interaction
